Source: CN114106174A (SUZHOU SCENE MEDICAL SCIENCE AND TECH LIMITED COMPANY, dated 2022)
Residue numbers refer to the chain shown, from its start. Each block holds one binder with its values, some of them ahead of it.

Target: T1, OX40 on OX40-overexpressing cells (OX40过表达细胞表面OX40) (UniProt P43489 29-277, limits assumed)
T1 construct: whole, on cells; The cell line and the construct of the overexpressing cells are not described; also called CD134; TNFRSF4
T1 sequence (looked up): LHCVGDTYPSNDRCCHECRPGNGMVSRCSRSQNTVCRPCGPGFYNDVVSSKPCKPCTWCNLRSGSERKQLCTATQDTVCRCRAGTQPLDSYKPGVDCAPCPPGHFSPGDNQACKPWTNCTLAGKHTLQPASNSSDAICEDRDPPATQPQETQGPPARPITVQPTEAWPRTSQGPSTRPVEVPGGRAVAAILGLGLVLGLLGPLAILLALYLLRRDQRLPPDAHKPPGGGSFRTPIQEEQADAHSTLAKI
Assay: flow cytometry, hybridoma supernatant on OX40-overexpressing cells, goat anti-mouse IgG-PE

B1: 24F10-1 (antibody, V domains shown)
VH: QVQLQESGPGLVKPSGNLSLTCVVSGASIINNNWWTWVRQSPGKGLEWIGEIFHSGTTNYNPSLKNRVTISVDKAKNQFSLNLKSVTAADTAVYYCVAYVSGTYYNFDYWGQGTLVTVSS
VL: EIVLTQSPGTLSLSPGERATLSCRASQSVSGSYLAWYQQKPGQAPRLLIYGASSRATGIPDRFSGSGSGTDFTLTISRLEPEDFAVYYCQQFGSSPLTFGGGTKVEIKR
Y586通道PE荧光值: 274000

B5: 17D5-11 (antibody, V domains shown)
VH: QVQLQESGPGLVKPSETLSLTCAVSGGSINSTNWWSWVRQPPGKGLEWIGEIYHSGSTNYNPSLKSRVTISVDKSKNQFSLKLSSVTAADTAVYYCARGGAVALDYWGQGTLVTVSS
VL: EIVLTQSPGPLSLSPGDRATLSCRASQTVSSSYLAWYLQKPGQAPRLLIYGASIRATGIPDRFSGSGSGTDFTLTISRLEPEDFAVYYCQQYGNSPITFGQGTRLEIKR
Y586通道PE荧光值: 475000

B6: 24B9-10 (antibody, V domains shown)
VH: QVQLQESGPGLVKPSGTLSLTCAVSGGSISSSNWWTWVRQPPGKGLEWIGEIYHSGSTNYNPSLKSRVTISVDKSKNQFSLKLSSVTAADTAVYYCARTGPIVTTEYWGQGTLVTVSS
VL: EIVLTQSPGTLSLSPGERATLSCRASQSVSSGYLAWYQQKPGQAPRLLIYGASIRATGIPDRFSGSGSGTDFTLTISRLEPEDFALYYCQQYGSSPLTFGGGTKVEIKR
Y586通道PE荧光值: 313000

B9: 20D2-12 (antibody, V domains shown)
VH: QVQLVESGGGLVKPGGSLRLSCAASGFTFSDYYMSWIRQAPGRGLEWISYISGSDSTIYYEDSVMGRFTISRDNAKNSLYLQMNSLRAEDTAVYYCARDRDVYGYSGYGYFDYWGQGTLVTVSS
VL: B5 VL with P10T, D17E, T28S, S32R, L38Q, I54N, I59M, N94S
Y586通道PE荧光值: 540000

B10: 16E4-10-5 (antibody, V domains shown)
VH: QVQLQESGPGLVKPSGTLSLTCDVSGGSISSSNWWSWVRQPPGKGLEWIGEIYHSGSTNYNPSLKSRVTISVDKSKNQVSLKLNSVTAADTAVYYCARGDILLWFGGQGTLVTVSS
VL: B5 VL with P10T, D17E, T28S, S32R, L38Q, I54N, I59M, N94S
Y586通道PE荧光值: 377000

B12: 24A12-12 (antibody, V domains shown)
VH: B6 VH with S15A, T36N, K74T, S84T, I102T, E106D
VL: B6 VL with G32S, I54Y, I59M, D61E, L86I, S94R
Y586通道PE荧光值: 343000

B14: 23D1-8 (antibody, V domains shown)
VH: QVQLVQSGAEVKKPGASVKVSCKASGYTFTGYYIHWVRQAPGQGLEWMGRINPNSGGTDFAQKFQARVTMTRDTAINIVYMELSRLRSDDTAVYYCARVVVASYYFDNWGQGTLVTVSS
VL: not shown
Y586通道PE荧光值: 166000

B15: 48D10-5 (antibody, V domains shown)
VH: QVQLVQSGAEVKKPGASMKVSCKASGYTFANFGINWVRQAPGQGLEWMGWISAYNGYTNYAQQFQGRITMTTDTSTSTAYMELRSLRSDDTAIYYCVIWFGELLSFDYWGQGTLVTVSS
VL: DIQMTQFPSSLSASVGDRVTITCRASQDISNYLAWFQQKPGKAPKSLIYAASSLQSGVPSKFSGNGFGTDFTFPLSRMQPEDFASSYCQQYNNYTFTFGRGTKVEIKR
Y586通道PE荧光值: 358000

B20: 35B8-6 (antibody, V domains shown)
VH: QITLKESGPTLVKPTQTLTLTCTFSGFSLSTSAVNVGWIRQPHGKALEWLALIFWNDDKRYSPSLKNRLTITKDTSKDQVVLTMSNMDPVDTATYYCAQYNWNSSFDYWGQGTLVTVSS
VL: DIQMTQSPSSLSASLGDRVTITCQASQDINTYLNWYQQKPGKAPKVLIYDASNLETGVPSRFSGSGSGTDFTFTISSLQPEDIATFYCQQYDNLITFGGGTKVEIKR
Y586通道PE荧光值: 243000

B22: 21F9-12 (antibody, V domains shown)
VH: QVQLQESGPGLVKPSGTLSLTCAVSGGSISSYNWWSWVRQPPGKGLEWIGEIYHSGNTNYNPSLKSRVTISVDKSKNQFSLKLSSVTAADTAMYYCARDQDYYGSGNFYYWGQGTLVTVSS
VL: not shown
Y586通道PE荧光值: 424000

B23: 24F8-7 (antibody, V domains shown)
VH: B22 VH with N57S, M93V, Q100E, F108Y, Y110H
VL: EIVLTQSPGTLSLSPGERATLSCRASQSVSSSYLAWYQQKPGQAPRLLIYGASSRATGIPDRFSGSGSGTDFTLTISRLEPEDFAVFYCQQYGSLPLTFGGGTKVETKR
Y586通道PE荧光值: 437000

B24: 20G6-7-1 (antibody, V domains shown)
VH: QVQLQESGPGLVKPSGTLSLTCAVSGGSISSSNWWSWVRQPPGKGLEWIGEIYHSGNTNYNPSLKSRVTISVDKSKNQFSLKLSSVTAADTAVYYCARGGTTFDYWGQGTLVTVSS
VL: EIVLMQYPGTLSLSSGERATLSCRASQSVSSRYLAWYQQKPGQAPRLLIYGASNRASGMPDRFSGSGSGTEFTLTISSLEPEDFAMYYCQQYGSSPITFGQGTRVEIKR
Y586通道PE荧光值: 352000

B25: 1F10-12-3 (antibody, V domains shown)
VH: QVQLQESGPGLVKPSGTLSLTCAVSGGSISNSNWWNWVRQPPGRGLEWIGEIYHSGSTNYNPSLKSRVTISVDKSKNQFSLKLTSVTAADTAVYYCARYSTPFFDYWGQGNLVTVSS
VL: DIQMTQSPSSLSASVGDRVTITCRASQSISNYLNWYQQKQGKAPKLLIYGASSLQSGVPSRFSGSGSGTDFTLTINSLQPEDFATYCCQQSYNNPLTFGGGTKVEIKR
Y586通道PE荧光值: 170000

Results, then the binder that gave them:

Y586通道PE荧光值: 195000
B2: 28E3-4 (antibody, V domains shown)
VH: QVQLQESGPGLVKPSGTLSLTCAVSGGSISRSNWWTWVRQSPGKGLEWIGEIYHSGNTNYNPSLKSRVTISLDKSKNQFSLKLSSVTAADTAVYYCASSGSLYMDVWGKGTTVTVSS
VL: DIQMTQSPSSLSASVGDRVTISCRASQSTSSYLNWYQQKPGKAPRLLIYGASSLQSGVPSRFSGSGSGTDFILTISSLQPEDFATYYCQQSYSIPITFGQGTRLEIKR

Y586通道PE荧光值: 187000
B3: 4D9-12 (antibody, V domains shown)
VH: B2 VH with R31S, T36S, S41P, N59I
VL: B2 VL with S12L, A13S, Q27H, S28G, T29S, S31T, S67F, L78M

Y586通道PE荧光值: 388000
B4: 29B8-3 (antibody, V domains shown)
VH: QVQLQESGPGLVKPSGTLSLTCAVSGVSISSSNWWSWVRQPPGKGLEWIGEIYHSGNTNYNPSLKSRVTISVDKSKNQFSLKLSSVTAADTAVYYCAETSTITTNYWGQGTLVTVSS
VL: B2 VL with S22T, S28T, T29I, R45K, G50A, G66E, I72T, S91T

Y586通道PE荧光值: 63900
B7: 23C4-1-5 (antibody, V domains shown)
VH: B10 VH with D23A, N59T, N77S, V79I, N84T, I101V, Q108R
VL: B5 VL with P10T, D17E, T20S, T28S, S32N, L38Q, A44T, T75I, G93S, N94S

Y586通道PE荧光值: 274000
B8: 14D3-7-3 (antibody, V domains shown)
VH: EVQLVESGGGLVKPGGSLRLSCAASGFTFSNAWMSWVRQAPGKGLEWVGRIKRKTDGGTTDYATPVKGRFTISRDASKNTLYLQMNSLKTEDTAVYYCTSAARRGYFDIWGRGTLVTVSS
VL: B24 VL with M5T, Y7S, S15P, S57T, E71D, S78R, V105L

Y586通道PE荧光值: 171000
B11: 21F3-11 (antibody, V domains shown)
VH: QVQLQESGPGLVKPSGTLSLTCAVSGGSISSSNWWSWVRQPPGKGLEWIGEIYHGGSTNYNPSLKSRITISVDKSKNQFSLKLSSVTAADTAMYYCATLPGYSSGWFDSWGQGTLVTVSS
VL: B6 VL with T5M, G32S, R46S, I54N, T57S, S77T, L86V, K104R

Y586通道PE荧光值: 221000
B13: 29A9-5 (antibody, V domains shown)
VH: QVQLQESGPGLVKPSGTLSLTCAVFGDSISSSYWWSWVRQPPGKGLEWIGEIYHSGSTHYNPSLKSRVTISVDKSKNHLSLKLISVTDADTAVYYCAGEDTGWPFDFWGQGTLVTVSS
VL: not shown

Y586通道PE荧光值: 202000
B16: 21D2-3 (antibody, V domains shown)
VH: QVQLVESGGGLVKPGGSLRLSCAASGFTFSDYYMSWIRQAPGKGLEWVSYISSSGTTIYCADSVKGRFTISRDNAKNSLYLQMNSLRAEDTAVYYCARDSSTWYEGNYFDYWGQGTLVTVSS
VL: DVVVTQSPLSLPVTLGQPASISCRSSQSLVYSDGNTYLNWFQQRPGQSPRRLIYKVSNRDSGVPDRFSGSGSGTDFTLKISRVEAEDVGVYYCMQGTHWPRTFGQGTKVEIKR

Y586通道PE荧光值: 243000
B17: 38D9-12 (antibody, V domains shown)
VH: QVQLQESGPGLVKPSGTLSLTCAVSGDSISSTNWWSWVRQPPGKGLEWIGEINHNGSTYYNPSLKSRVTISVDKSKNQFSLKLRSVTAADTAVYYCAREDYYYMDVWGKGTTVTVSS
VL: DIQMTQSPSSLSASVGDRVTITCRTSQGIWNDLGWYQQKPGKAPKRLIYAASSLQSGVPSRFSGSESGTEFTLTISSLQPEDFATYYCLQYNNYPLTFGGGTKVEIKR

Y586通道PE荧光值: 432000
B18: 18F5-2 (antibody, V domains shown)
VH: B10 VH with L4M, T21I, D23A, N33K, V72I, V79F, K82R, N84T, I101V
VL: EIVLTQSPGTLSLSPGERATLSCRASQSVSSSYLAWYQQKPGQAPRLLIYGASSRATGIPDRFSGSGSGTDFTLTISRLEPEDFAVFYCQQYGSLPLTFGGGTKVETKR

Y586通道PE荧光值: 416000
B19: 26C3-4 (antibody, V domains shown)
VH: B10 VH
VL: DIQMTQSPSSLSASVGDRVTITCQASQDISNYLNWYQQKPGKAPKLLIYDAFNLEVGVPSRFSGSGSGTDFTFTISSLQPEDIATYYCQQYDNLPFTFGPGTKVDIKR

Y586通道PE荧光值: 402000
B21: 18F11-4 (antibody, V domains shown)
VH: B22 VH with N57S, M93V, Q100E, F108Y, Y110H
VL: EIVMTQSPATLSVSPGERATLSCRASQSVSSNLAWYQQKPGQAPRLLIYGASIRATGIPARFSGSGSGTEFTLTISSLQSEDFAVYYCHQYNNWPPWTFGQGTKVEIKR
